The target of test [1] is T1, KLK2 CAR KL2B413-LH expressed on SupT1 cells.
T1 construct: also called SupT1-KL2B413 LH; KL2B413-LH SupT1
Put plainly: flow cytometry on KL2B413-LH CAR SupT1 cells, directly PE-labelled antibody, PE median fluorescence. As to the method: Multiple lots of PE-A002B39 were compared to assess differences in binding to KL2B413LH-SupT1 cells across batches. KL2B413-LH SupT1 cells (200,000 cells/well) were stained with LIVE/DEAD Fixable Near-IR viability dye and incubated with increasing concentrations of PE-A002B39 for 30 minutes on ice. After incubation, washing, and fixation, the samples were acquired on a 10 color FACSCanto II flow cytometer. Analysis was done using FlowJo analysis software and the PE median fluorescent intensity of live SupT1 cells is plotted in FIG. 7.
(In flow cytometry, cells or beads pass a laser one at a time.)

Test [2] concerns the target T2, KL2B513.
T2 construct: KL2B413-derived scFv-Fc fusion protein with the variable regions in VL-VH orientation; also called KL2B413-LH-scFv; KL2B413-LH scFv-Fc fusion protein; not shown: Fc part of the scFv-Fc fusion and its junction to the scFv
Put plainly: SPR, Biacore; antibody captured on anti-mouse Fc, scFv-Fc fusion as analyte. As to the method:
Anti-Mouse Fc antibody directly immobilized on M5 sensor chip. Library Antibodies (Mouse IgG2a) diluted to 1 ug/ml to reach approximately 20-50 RU. Antigens (scFV Fc Fusions) are associated at 500 nM to 0.8 nM, 1:5 dilutions for 3 minutes. Dissociation for 30 mins.
A general note: Surface plasmon resonance follows binding to a sensor surface in real time, without labels.

Test [3] deals with T2, KL2B513. The test is described as follows: SPR, ProteOn XPR36; antibody captured on anti-mouse Fc, scFv-Fc fusion as analyte. How it is done:
(§1) ProteOn XPR36 system (BioRad) was used to perform binding assays. ProteOn GLC chips (BioRad, Cat#176-5011) were coated with Anti-Mouse Fc antibody. Library Antibodies (Mouse IgG2a) were diluted to 0.25 ug/ml to 1 ug/ml to reach approximately 100-200RL. Antigens (scFv-Fc Fusions) were associated at 1000 nM to 0.4 nM, 1:4 dilutions for 3 minutes, followed by dissociation for 30 mins. The results of the assay (Table 1 below) show similar binding affinity of A002B39 with both KLB513 and KLB610.

The next test addresses T3, KL2B610.
T3 construct: KL2B413-derived scFv-Fc fusion protein with the variable regions in VH-VL orientation; also called KL2B413-HL-scFv; KLB610; not shown: Fc part of the scFv-Fc fusion and its junction to the scFv
Described as above. How it is done: as §1

Test [4] deals with T1, KLK2 CAR KL2B413-LH expressed on SupT1 …. The test is described as follows: flow cytometry on KL2B413-LH SupT1 cells, PE goat anti-mouse IgG detection, PE median fluorescence. How it is done:
SupT1 cells expressing KL2B413LH were compared to parental CAR-SupT1 cells. Cells (100,000 cells/well) were stained with LIVE/DEAD Fixable Near-IR viability dye (Life Technologies L10119) and then incubated with increasing concentrations of A002B39 for 30 minutes on ice. Following incubation, the samples were washed with BSA stain buffer (BD Biosciences #554657) and stained with PE-goat anti-mouse IgG polyclonal antibody (Biolegend #405307) to detect bound antibody on live CAR+SupT1 cells. After incubation, washing, and fixation (Cytofix, BD Biosciences), the samples were acquired on a 10 color FACSCanto II (BD Biosciences) flow cytometer. Analysis was done using FlowJo and the PE median fluorescent intensity of live SupT1 cells is plotted in FIG. 4. […] No binding was detected on CAR-SupT1 parental cells.

T2 sequence (scFv, as listed by the source limits assumed): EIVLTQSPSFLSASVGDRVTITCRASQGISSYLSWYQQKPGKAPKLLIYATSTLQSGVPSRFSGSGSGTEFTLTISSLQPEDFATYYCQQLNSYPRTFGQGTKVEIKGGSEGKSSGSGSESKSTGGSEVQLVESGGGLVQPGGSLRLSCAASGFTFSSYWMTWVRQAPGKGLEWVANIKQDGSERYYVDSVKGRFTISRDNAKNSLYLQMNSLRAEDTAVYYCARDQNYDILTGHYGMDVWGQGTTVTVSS
T3 sequence (scFv, as listed by the source limits assumed): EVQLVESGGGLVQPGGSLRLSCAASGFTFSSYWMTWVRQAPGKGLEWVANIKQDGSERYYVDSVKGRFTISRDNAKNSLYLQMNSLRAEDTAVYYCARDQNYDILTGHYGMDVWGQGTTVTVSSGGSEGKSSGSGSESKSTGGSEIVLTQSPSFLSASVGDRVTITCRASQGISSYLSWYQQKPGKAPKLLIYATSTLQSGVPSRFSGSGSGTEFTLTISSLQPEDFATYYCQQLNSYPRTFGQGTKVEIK
T1 sequence (chain, as listed by the source limits assumed): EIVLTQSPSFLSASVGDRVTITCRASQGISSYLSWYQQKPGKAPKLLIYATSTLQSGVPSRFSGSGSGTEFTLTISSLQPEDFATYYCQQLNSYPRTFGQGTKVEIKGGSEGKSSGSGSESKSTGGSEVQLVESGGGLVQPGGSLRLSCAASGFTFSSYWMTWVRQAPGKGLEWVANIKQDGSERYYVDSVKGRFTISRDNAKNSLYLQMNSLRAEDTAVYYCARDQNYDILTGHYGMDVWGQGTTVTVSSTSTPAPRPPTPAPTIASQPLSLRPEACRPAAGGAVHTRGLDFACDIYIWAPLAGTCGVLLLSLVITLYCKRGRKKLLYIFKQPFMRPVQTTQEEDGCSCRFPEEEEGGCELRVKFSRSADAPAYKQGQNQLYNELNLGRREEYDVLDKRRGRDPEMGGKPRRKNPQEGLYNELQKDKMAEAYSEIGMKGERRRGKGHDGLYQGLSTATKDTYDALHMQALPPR

B1: PE-A002B39 (antibody, mouse IgG2a, kappa, V domains shown)
VH: EVQLVQSGAEVKKPGSSVKVSCKASGGTFSSYAISWVRQAPGQGLEWMGGIIPIFGTANYAQKFQGRVTITADESTSTAYMELSSLRSEDTAVYYCARVQWGLDYWGQGTLVTVSS
VL: EIVLTQSPATLSLSPGERATLSCRASQSVDSALAWYQQKPGQAPRLLIYGASNRATGIPARFSGSGSGTDFTLTISSLEPEDFAVYYCQQRFNWPITFGQGTKVEIKR
modifications: R-phycoerythrin conjugate, 1:1 PE:antibody; attachment site and chain not stated
notes: also called A002B39 conjugated to R-PE
The EC50 is the concentration at which the effect is half-maximal. A lower EC50 goes with higher potency in that assay. The molecule B1 showed an EC50 in test [1] of 1.6 µg/mL.

B2: A002B39 (antibody, mouse IgG2a, kappa, V domains shown)
VH: EVQLVQSGAEVKKPGSSVKVSCKASGGTFSSYAISWVRQAPGQGLEWMGGIIPIFGTANYAQKFQGRVTITADESTSTAYMELSSLRSEDTAVYYCARVQWGLDYWGQGTLVTVSS
VL: EIVLTQSPATLSLSPGERATLSCRASQSVDSALAWYQQKPGQAPRLLIYGASNRATGIPARFSGSGSGTDFTLTISSLEPEDFAVYYCQQRFNWPITFGQGTKVEIKR
notes: expressed in HEK293 Expi or CHO; also called A002M39
As a reminder, the Kd is the constant that tells how readily two partners part at equilibrium. A high value points to lower affinity. The koff is a measure of how fast the partners let go of each other. A low value points to slow dissociation. By kon is commonly meant the second-order rate constant of association. Turning to B2, in the test with KL2B513 [2], the Kd was found to be 3.49 nM, the koff was determined as 0.000202 s⁻¹ and the kon is 57900 M⁻¹ s⁻¹. In addition, in the test with KL2B513 [3], binding was characterised by a dissociation constant (Kd) of 0.99 nM, the koff amounted to 0.000333 s⁻¹ and the kon was 339000 M⁻¹ s⁻¹. Further, in the test with KL2B610, the affinity, expressed as Kd, was 1.11 nM; the koff amounted to 0.000315 s⁻¹; the kon turned out to be 285000 M⁻¹ s⁻¹. For the same molecule, in test [4], the EC50 is 0.4 µg/mL.

Source of the values: US20220064334A1 (Janssen / Centocor, published 2022).
